94 variants from the supplement of paper PMC10567573 can be followed below.

B1: ANKRD40 (parent)
chain: VCCCELGVNPDQVEKIRKLPNTLL
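Also: lentivirally expressed fusions sorted by FACS into six bins by GFP to DsRed ratio, PSI derived from sequencing read proportions per bin multiplied by bin number.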

In the data set the parent is B1. Kind of data set: protein stability index of a GFP-peptide fusion (GPS, HEK-293T) (PSI 1-6); higher = more stable. As to conditions: c terminus: a fixed tail appended.
As to VCCCELGVNPDQVEKIRKLPKTLL, the protein stability index is 3.13.
Take VCCCELGVNPDQVEKIRKLPCTLL: the protein stability index was 2.21.
Turning to VCCCELGVVPDQVEKIRKLPNTLL, the protein stability index came out at 1.75.
As to VCCCELGVSPDQVEKIRKLPNTLL, the protein stability index came to 2.3.
In the case of VCCCELGVTPDQVEKIRKLPNTLL it was 1.68.
In the case of VCCCELGVGPDQVEKIRKLPNTLL it was 1.96; in that of VCCCELGVQPDQVEKIRKLPNTLL, 1.62; in that of VCCCELGVNPDQVEKIRKLANTLL, 1.88.
As to VCCCELGVNPDQVEKIRKLNNTLL, the protein stability index worked out at 2.3.
In the case of VCCCELGVNPDQVEKIRKLKNTLL it was 1.95; in that of VCCCELGVNPDQVEKIRKLENTLL, 1.4.
Then VCCCELGVNPDQVEKIRKLLNTLL, with 2.02.
VCCCELGVNPDQVEKIRMLPNTLL: the protein stability index was determined as 1.68.
Then VCCCELGVNPDQVEKIRGLPNTLL, with 1.53.
Turning to VCCCELGVNPDQVEKIRNLPNTLL, the protein stability index was found to be 1.64.
With VCCCELGVNPDQVEKIRYLPNTLL, the protein stability index was 1.31.
In the case of VCCCELGVNPDQVEKIRWLPNTLL it was 1.75; in that of VCCCELGVNPDQVEKIRPLPNTLL, 1.59.
As for VCCCELGVNPDQVEKIRELPNTLL, the protein stability index stood at 2.03.
Then VCCCELGVNPDQVEKKRKLPNTLL, with 2.53.
VCCCELGVNPDQVEKERKLPNTLL: the protein stability index was found to be 3.09.
Then VCCCELGVNPDQVEKCRKLPNTLL, with 2.22; and VCCCELGVNPDQVEKVRKLPNTLL, with 2.38.
In the case of VCCCELGVNPDQVEKHRKLPNTLL it was 1.98; in that of VCCCELGVNPDQVEKPRKLPNTLL, 2.89.
Then VCCCELGVNPDQVEKARKLPNTLL, with 3.14.
On to VCCCELGVNPDQVEKQRKLPNTLL, for which the protein stability index is 2.32.
In the case of VCCCELGVNPGQVEKIRKLPNTLL it was 2.17.
In the case of VCCCELGVNPWQVEKIRKLPNTLL it was 1.98.
In the case of VCCCELGVNPCQVEKIRKLPNTLL it was 2.01; in that of VCCCELGVNPNQVEKIRKLPNTLL, 1.42.
VCCCELGVNPVQVEKIRKLPNTLL: the protein stability index stood at 1.46.
Then VCCCELGVNPHQVEKIRKLPNTLL, with 1.26.
Regarding VCCCELGVNPYQVEKIRKLPNTLL, the protein stability index is 2.55.
Then VCCCELGVNPIQVEKIRKLPNTLL, with 1.93; and VCCCELGVNPDQKEKIRKLPNTLL, with 2.25.
As for VCCCELGVNPDQDEKIRKLPNTLL, the protein stability index worked out at 3.11.
Then VCCCELGVNPDQCEKIRKLPNTLL, with 1.91.
Then VCCCELGVNPDQEEKIRKLPNTLL, with 2.78.
With VCCCELGVNPDQSEKIRKLPNTLL, the protein stability index turned out to be 2.05.
Consider VCCCELGVNPDQIEKIRKLPNTLL, for which the protein stability index came to 1.75.
Regarding VCCCELGVNPDQVEKIRKLPNGLL, the protein stability index turned out to be 1.51.
In the case of VCCCELGVNPDQVEKIRKLPNKLL it was 2.1; in that of VCCCELGVNPDQVEKIRKLPNQLL, 1.63.
Then VCCCELGVNPDQVEKIRKLPNRLL, with 2.02; and VCCCELGVNPDQVEKIRKLPNHLL, with 1.8; and VCCCELGVNPDQVEKIRKLPNWLL, with 2.01.
On to VCCCELGVNPDQVEKIRKLPNLLL, for which the protein stability index amounted to 2.73.
As to VCCCELGVNPDQVEKIRKLPNALL, the protein stability index turned out to be 2.09.
On to VCCCELGVNPDQVEKIRKLPNELL, for which the protein stability index is 2.64.
Consider VCCCELGVNPDQVEKIRKLPNTLK, for which the protein stability index was 2.09.
In the case of VCCCELGVNPDQVEKIRKLPNTLD it was 3.15; in that of VCCCELGVNPDQVEKIRKLPNTLY, 1.84; in that of VCCCELGVNPDQVEKIRKLPNTLN, 2.61.
In the case of VCCCELGVNPDQVEKIRKLPNTLF it was 2.04; in that of VCCCELGVNPDQVEKIRKLPNTLH, 2.02; in that of VCCCELGVNPDQVEKIRKLPNTLS, 2.49.
In the case of VCCCELGVNPDQVEKIRKLPNTLR it was 1.38; in that of VCCKELGVNPDQVEKIRKLPNTLL, 2.22.
Turning to VCCQELGVNPDQVEKIRKLPNTLL, the protein stability index turned out to be 2.72.
On to VCCMELGVNPDQVEKIRKLPNTLL, for which the protein stability index is 2.16.
In the case of VCCTELGVNPDQVEKIRKLPNTLL it was 2.76.
As to VCCRELGVNPDQVEKIRKLPNTLL, the protein stability index is 2.43.
Take VCCIELGVNPDQVEKIRKLPNTLL: the protein stability index is 2.28.
Then VCCCELGVNPDQVEKIRKQPNTLL, with 2.5.
With VCCCELGVNPDQVEKIRKSPNTLL, the protein stability index was 2.17.
For the variant VCCCELGVNPDQVEKIRKMPNTLL, the protein stability index came to 2.1.
Then VCCCELGVNPDQVEKIRKPPNTLL, with 1.91.
For VCCCELGVNPDQVEKIRKAPNTLL, the protein stability index was 2.12.
Then VCCCELGVNPDQVEKIRKTPNTLL, with 2.33; and VCCCEGGVNPDQVEKIRKLPNTLL, with 2.87; and VCCCEQGVNPDQVEKIRKLPNTLL, with 3.27.
Then VCCCEAGVNPDQVEKIRKLPNTLL, with 2; and VCCCEYGVNPDQVEKIRKLPNTLL, with 1.87; and VCCCEVGVNPDQVEKIRKLPNTLL, with 2.2.
As for VCCCEDGVNPDQVEKIRKLPNTLL, the protein stability index stood at 3.28.
With VCCCERGVNPDQVEKIRKLPNTLL, the protein stability index was 2.3.
Then VCCCEKGVNPDQVEKIRKLPNTLL, with 3.1.
Then VCCCELGVNPDDVEKIRKLPNTLL, with 2.29; and VCCCELGVNPDPVEKIRKLPNTLL, with 1.86.
Turning to VCCCELGVNPDFVEKIRKLPNTLL, the protein stability index is 2.14.
VCCCELGVNPDTVEKIRKLPNTLL: the protein stability index came to 1.76.
On to VCCCELGVNPDHVEKIRKLPNTLL, for which the protein stability index worked out at 1.42.
In the case of VCCCELGVNPDVVEKIRKLPNTLL it was 2.24.
With VCCCELGVNPDIVEKIRKLPNTLL, the protein stability index was 2.38.
In the case of VCCCELGSNPDQVEKIRKLPNTLL, the protein stability index was 2.4.
Then VCCCELGTNPDQVEKIRKLPNTLL, with 1.62; and VCCCELGYNPDQVEKIRKLPNTLL, with 1.77.
Then VCCCELGPNPDQVEKIRKLPNTLL, with 1.79; and VCCCELGHNPDQVEKIRKLPNTLL, with 2.17.
Take VCCCELGRNPDQVEKIRKLPNTLL: the protein stability index worked out at 1.81.
Regarding VCCCELGCNPDQVEKIRKLPNTLL, the protein stability index was 1.86.
In the case of VCCCELGQNPDQVEKIRKLPNTLL it was 1.85.
Then VCCCELGDNPDQVEKIRKLPNTLL, with 2.37.
